Measurements taken from patent publication US20250092160A1 (published 2025).
Changes are numbered by the printed parent chain.

B1: B19c66 (antibody, human IgG1, kappa)
light: not shown
heavy: not shown
chain: CPPCPAPELLGGPSVFLFPPKPKDTLMISRTPEVTCVVVDVSHEDPEVKFNWYVDGVEVHNAKTKPREEQYNSTYRVVSVLTVLHQDWLNGKEYKCKVSNKALPAPIEKTISKAKGQPREPQVYVYPPSRDELTKNQVSLTCLVKGFYPSDIAVEWESNGQPENNYKTTPPVLDSDGSFALVSKLTVDKSRWQQGNVFSCSVMHEALHNHYTQKSLSLSPGK
B2: B19c66AAC9 (antibody, human IgG1, kappa)
light: not shown
heavy: QVQLQQSGAELVRPGSSVKISCKASGYAFSSYWMNWVKQRPGQGLEWIGQIWPGDGDTNYNGKFKGKATLTADESSSTAYMQLSSLASEDSAVYFCARRETTTVGRYYYAMDYWGQGTTVTVSSASTKGPSVFPLAPSSKSTSGGTAALGCLVKDYFPEPVTVSWNSGALTSGVHTFPAVLQSSGLYSLSSVVTVPSSSLGTQTYICNVNHKPSNTKVDKKVEPKSCDKTHTCPPCPAPKRRGGPSVFLFPPKPKDTLMISRTPEVTCVVVDVSHEDPEVKFNWYVDGVEVHNAKTKPREEQYNSTYRVVSVLTVLHQDWLNGKEYKCKVSNKALPAPIEKTISKAKGQPREPQVYVLPPSRDELTKNQVSLLCLVKGFYPSDIAVEWESNGQPENNYLTWPPVLDSDGSFFLYSKLTVDKSRWQQGNVFSCSVMHEALHNHYTQKSLSLSPGK
chain: B1 chain with L9D, L10E
B3: HB1905 (bispecific antibody, human IgG1, kappa)
light 1: DIQMTQTTSSLSASLGDRVTISCRASQDISKYLNWYQEKPDGTVKLLIYHTSRLHSGVPSRFSGSGSGTDYSLTISNLEQEDIATYFCQQGNTLPYTFGGGTKLEIKRTVAAPSVFIFPPSDEQLKSGTASVKCLLNNFYPREAKVQWKVDNALQSGNSQESVTEQDSKDSTYSLSSTLTLSKADYEKHKVYACEVTHQGLSSPVTKSFNRGEC
heavy 1: EVKLQESGPGLVAPSQSLSVTCTVSGVSLPDYGVSWIRKPPRKGLEWLGVIWGSETTYYNSALKSRLTIIKDNSKSQVFLKMSSLQTDDTAIYYCAKHYYYGGSYAMDYWGQGTSVTVSSASTKGPSVFPLAPSSKSTSGGTAALGCLVKDYFPEPVTVSWNSGALTSGVHTFPAVLQSSGLYSLESVVTVPSSSLGTQTYICNVNHKPSNTKVDKKVEPKSCTDWSPYADQSIKVRISLKSALGDKAYEWNDNEMYLFRSSVAYAMRQYFLKVKNQMILFGEEDVRVANLKPRISFNFFVTAPKNVSDIIPRTEVEKAIRMSRSRINDAFRLNDNSLEFLGIQPTLGPPNQPPVSTSTSPTRSMAPGAVHLPQPVSTRDKTHTCPPCPAPELLGGPSVFLFPPKPKDTLMISRTPEVTCVVVDVSHEDPEVKFNWYVDGVEVHNAKTKPREEQYNSTYRVVSVLTVLHQDWLNGKEYKCKVSNKALPAPIEKTISKAKGQPREPQVCTLPPSRDELTKNQVSLSCAVKGFYPSDIAVEWESNGQPENNYKTTPPVLDSDGSFFLVSKLTVDKSRWQQGNVFSCSVMHEALHNRFTQKSLSLSPG
light 2: QVQLQQPGAELVKPGASVKMSCKASGYTFTSYNMHWVKKTPGRGLEWIGAIYPGNGDTSYNQKFKGKATLTADKSSSTAYMQLSSLTSEDSAVYYCARSTYYGGDWYFNVWGAGTLVTVSSASVAAPSVFIFPPSDEQLKSGTASVECLLNNFYPREAKVQWKVDNALQSGNSQESVTEQDSKDSTYSLSSTLTLSKADYEKHKVYACEVTHQGLSSPVTKSFNRGEC
heavy 2: not shown
notes: also called anti-CD20/anti-CD19 bispecific GEM-DIMER
B4: HB1906 (bispecific antibody, human IgG1, kappa)
light 1: B3 light 1
heavy 1: B3 heavy 1
light 2: B3 light 2 with K39E
heavy 2: not shown
notes: as for B3
B5: Rituxan (antibody)
VH: not shown
VL: QIVLSQSPAILSASPGEKVTMTCRASSSVSYIHWFQQKPGSSPKPWIYATSNLASGVPVRFSGSGSGTSYSLTISRVEAEDAATYYCQQWTSNPPTFGGGTKLEIKRTVAAPSVFIFPPSDEQLKSGTASVVCLLNNFYPREAKVQWKVDNALQSGNSQESVTEQDSKDSTYSLSSTLTLSKADYEKHKVYACEVTHQGLSSPVTKSFNRGEC

Key:
CD19 (Table 9) = target: T1, CD19 (Table 9) (UniProt P15391 20-291)
T1 sequence (looked up): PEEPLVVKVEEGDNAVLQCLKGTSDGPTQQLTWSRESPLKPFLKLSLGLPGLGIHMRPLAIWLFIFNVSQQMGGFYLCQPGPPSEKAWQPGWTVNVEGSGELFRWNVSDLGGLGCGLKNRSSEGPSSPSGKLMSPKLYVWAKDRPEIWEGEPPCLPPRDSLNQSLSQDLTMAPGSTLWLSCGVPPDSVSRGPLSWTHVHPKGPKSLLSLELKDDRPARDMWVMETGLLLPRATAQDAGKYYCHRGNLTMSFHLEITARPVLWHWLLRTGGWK

[1] = target: T2, Recombinant CD20 (ACROBiosystems Cat #CD0-H52H3) (UniProt P11836 1-297); assay: SPR Carterra LSA
T2 construct: also called monovalent CD20
T2 sequence: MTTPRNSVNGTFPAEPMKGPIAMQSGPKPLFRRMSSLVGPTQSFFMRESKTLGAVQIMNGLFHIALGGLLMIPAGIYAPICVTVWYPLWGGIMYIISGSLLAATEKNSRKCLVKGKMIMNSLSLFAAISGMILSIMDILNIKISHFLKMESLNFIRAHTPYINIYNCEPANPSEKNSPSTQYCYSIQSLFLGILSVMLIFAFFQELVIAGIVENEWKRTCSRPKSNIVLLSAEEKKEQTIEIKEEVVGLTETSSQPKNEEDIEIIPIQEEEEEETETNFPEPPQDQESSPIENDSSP

[2] = target: T3, Recombinant CD19 (ACROBiosystems Cat #CD9-H52H2) (UniProt P15391 20-291); assay: SPR Carterra LSA
T3 construct: also called monovalent CD19
T3 sequence: T1 sequence (looked up)

CD16a 158V FcRγIIIa [3] = target: T4, CD16a 158V FcRγIIIa (human, UniProt P08637 17-208); assay: SPR Carterra LSA
T4 construct: also called FcgRIIIa 158 V _ CD 16 a 158 V; Fc gamma RIIIa (CD16a) (Val176)

CD32a 131R FcRγIIa [4] = target: T5, CD32a 131R FcRγIIa (human, UniProt P12318 36-218); assay: SPR Carterra LSA
T5 construct: also called Fc gamma RIIa (CD32) (Arg167)
T5 sequence (looked up): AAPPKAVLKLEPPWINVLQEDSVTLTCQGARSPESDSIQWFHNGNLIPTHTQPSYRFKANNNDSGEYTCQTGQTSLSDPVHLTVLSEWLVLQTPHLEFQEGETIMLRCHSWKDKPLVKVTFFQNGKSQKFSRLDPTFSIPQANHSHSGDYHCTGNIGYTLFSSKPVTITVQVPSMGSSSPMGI

CD64 FcRγI [5] = target: T6, CD64 FcRγI (human, UniProt P12314 16-288); assay: SPR Carterra LSA
T6 construct: also called Fc gamma RI (CD64)

CD16a 158V FcRγIIIa [6] = target: T4, CD16a 158V FcRγIIIa
CD16b FcRγIIIb = CD16b FcRγIIIb (human, UniProt O75015 20-208)
CD32a 131H FcRγIIa = target: T7, CD32a 131H FcRγIIa (human, UniProt P12318 36-218)
T7 sequence (looked up): T5 sequence (looked up) with R132H

CD32a 131R FcRγIIa [7] = target: T5, CD32a 131R FcRγIIa
CD32b/c FcRγIIb = target: T8, CD32b/c FcRγIIb (human, UniProt P31994 46-217)
T8 sequence (looked up): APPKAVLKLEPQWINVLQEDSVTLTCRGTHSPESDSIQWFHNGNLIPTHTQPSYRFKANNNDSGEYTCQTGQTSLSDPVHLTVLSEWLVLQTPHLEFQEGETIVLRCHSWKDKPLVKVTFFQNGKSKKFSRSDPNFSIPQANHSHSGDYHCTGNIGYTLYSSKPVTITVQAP

CD64 FcRγI [8] = target: T6, CD64 FcRγI

T6 sequence (P12314 16-288 limits assumed): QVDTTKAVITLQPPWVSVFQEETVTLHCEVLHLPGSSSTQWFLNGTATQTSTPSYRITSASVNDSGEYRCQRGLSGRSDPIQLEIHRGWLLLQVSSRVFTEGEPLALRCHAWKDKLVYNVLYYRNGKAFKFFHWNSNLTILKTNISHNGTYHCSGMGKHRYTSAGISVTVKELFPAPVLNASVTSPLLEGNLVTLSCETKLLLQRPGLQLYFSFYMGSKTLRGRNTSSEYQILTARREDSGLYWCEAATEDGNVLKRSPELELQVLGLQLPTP
T4 sequence (P08637 17-208 F176V limits assumed): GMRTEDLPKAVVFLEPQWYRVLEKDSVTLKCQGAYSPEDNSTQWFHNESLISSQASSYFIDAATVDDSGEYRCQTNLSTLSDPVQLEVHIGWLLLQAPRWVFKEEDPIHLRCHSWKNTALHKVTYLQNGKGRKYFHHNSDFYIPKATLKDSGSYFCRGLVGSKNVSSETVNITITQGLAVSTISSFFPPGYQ
Chain of CD16b FcRγIIIb (O75015 20-208 limits assumed): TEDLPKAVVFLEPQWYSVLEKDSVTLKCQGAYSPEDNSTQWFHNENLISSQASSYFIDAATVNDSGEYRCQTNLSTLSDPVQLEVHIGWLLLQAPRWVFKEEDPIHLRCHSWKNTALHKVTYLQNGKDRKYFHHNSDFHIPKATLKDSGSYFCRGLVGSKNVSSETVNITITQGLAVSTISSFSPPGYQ

Binder	Kd (CD19 (Table 9)) [nM]	binding result [1]	binding result [2]	binding result (CD16a 158V FcRγIIIa [3])	binding result (CD32a 131R FcRγIIa [4])	binding result (CD64 FcRγI [5])	other results
B1	21.8	–	–	–	–	–	–
B2	21	–	–	–	–	–	–
B3	–	binds	binds	binds	binds	binds	–
B4	–	binds	binds	binds	binds	binds	–
B5	–	–	–	–	–	–	Kd (CD16a 158V FcRγIIIa [6]): 715 nM; Kd (CD16b FcRγIIIb): 1530 nM; Kd (CD32a 131H FcRγIIa): 892 nM; Kd (CD32a 131R FcRγIIa [7]): 1250 nM; Kd (CD32b/c FcRγIIb): 1520 nM; Kd (CD64 FcRγI [8]): 52.8 nM
